The results in this text go back to US20130251640A1.

The assay addresses trypsin (trypsin-EDTA 0.25%, Sigma-Aldrich). Put plainly: cell-based or functional assay.

A value given as a limit tells only on which side of the number the result lay.

“PLL-FITC (poly-L-lysine conjugated with fluorescein isothiocyanate, FITC/PLL=10/1)” showed a change in FITC fluorescence signal (dequenching) of more than 34 fold.
